Article PMC7317531 (Chembiochem, 2020)

How the values were obtained:
SahH [1] = target: T1, SahH (Psilocybe cubensis, UniProt A0ACB8GS59); assay: inhibition of SAH hydrolysis; format: biochemical; details: hydrolytic direction
T1 sequence (A0ACB8GS59 1-430): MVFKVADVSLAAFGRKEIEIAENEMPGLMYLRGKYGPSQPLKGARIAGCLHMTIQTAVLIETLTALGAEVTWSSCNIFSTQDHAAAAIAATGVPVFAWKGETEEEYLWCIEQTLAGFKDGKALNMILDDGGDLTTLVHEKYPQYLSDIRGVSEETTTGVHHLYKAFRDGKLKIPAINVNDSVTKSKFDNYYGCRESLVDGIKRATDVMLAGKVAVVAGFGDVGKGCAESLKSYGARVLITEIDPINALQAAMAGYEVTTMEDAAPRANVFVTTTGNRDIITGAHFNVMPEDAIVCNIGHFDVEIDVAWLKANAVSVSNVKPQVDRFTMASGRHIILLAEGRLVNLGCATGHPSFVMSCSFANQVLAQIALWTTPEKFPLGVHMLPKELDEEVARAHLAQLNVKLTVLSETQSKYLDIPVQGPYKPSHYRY

PsiM = PsiM (Psilocybe cubensis, UniProt P0DPA9); assay: UHPLC-MS quantification of baeocystin and psilocybin; format: biochemical; details: 3 mM SAM, 1 mM norbaeocystin, 1 μM PsiM, pH 8.0, 25 °C; competitive
SahH [2] = target: T1, SahH; assay: Ellman's reagent; format: biochemical; details: hydrolytic direction, 100 μM NAD+, pH 7.8, 34 °C
purified protein [3] = substrate: Nc1ncnc2c1ncn2[C@@H]1O[C@H](CO)[C@@H](O)[C@H]1O; assay: purified protein
purified protein [4] = substrate: N[C@@H](CCS)C(=O)O; assay: purified protein; details: synthetic direction, co-substrate adenosine
purified protein [5] = substrate: Nc1ncnc2c1ncn2[C@@H]1O[C@H](COP(=O)(O)OP(=O)(O)OP(=O)(O)O)[C@@H](O)[C@H]1O; assay: purified protein; details: adenosine co-substrate, 10 mM MgCl2, pH 7.8, 30 °C
[6] = synthetic direction, co-substrate L-homocysteine
[7] = ATP co-substrate, 10 mM MgCl2, pH 7.8, 30 °C

Q: Which inhibition (SahH [1]; tenfold excess over SAH) does the source give for `Nc1ncnc2[nH]cnc12` [Ade] here?
A: to a lower extent—by tenfold excess of Ade over the SAH substrate

Q: For `Nc1ncnc2c1ncn2[C@@H]1O[C@H](CO)[C@@H](O)[C@H]1O` [Ado], which inhibition (SahH [1]; product inhibition) is on record?
A: SAH hydrolysis is strongly inhibited by elevated Ado concentrations

Q: With `Nc1ncnc2c1ncn2[C@@H]1O[C@H](CSCC[C@H](N)C(=O)O)[C@@H](O)[C@H]1O` [SAH] as the molecule, how does the “inhibition at 1-16 mM” value (PsiM) read?
A: SAH competitively inhibited PsiM′s activity in a concentration‐dependent manner

Q: And the Km (SahH [2])?
A: 57.2 µM

B1: SahH (Psilocybe cubensis) (protein)
chain: T1 sequence (A0ACB8GS59 1-430)
Q: What does the source list for B1?
A: Km (purified protein [3]; [6]): 56.7 µM; kcat (purified protein [3]; [6]): 1.8 s⁻¹; kcat/Km (purified protein [3]; [6]): 31000 M⁻¹ s⁻¹; Km (purified protein [4]): 19.8 µM; kcat (purified protein [4]): 1.8 s⁻¹; kcat/Km (purified protein [4]): 91000 M⁻¹ s⁻¹

B2: AdoK (Psilocybe cubensis) (protein)
chain: MSAPSYSLFCMGNPLLDMQVRNGEQLLEKYGLKANDAILADEKQSEIYDELVKEHQVTYVAGGAAQNAARGAAYILPPGSVVYTGAVGDDELAEQLKAANKREGLDQVYQVKKGEKTGACAVVITGHHRSLVTTLRVAEKFEKSHLSSPEVAPLVENAKFFYIEGYFLTHGVESALELSSKASAAGKTFVMNLSAPFIAQFFGEQLNQILPHTDIIIGNEAEAEAWATAHNYASTTDLASIAKQIALLPKSNPARPRVVVFTHGAQSTVLVSADRPDEARVFAVDVLADDKIVDTNGAGDAFAGGFVGALVAGKDLEGAVLAGHALARQCVQQVGPQYPWPKVDIL
Q: Which results are given for B2?
A: Km (purified protein [3]; [7]): 33.6 µM; kcat (purified protein [3]; [7]): 1400 s⁻¹; kcat/Km (purified protein [3]; [7]): 4.2e+07 M⁻¹ s⁻¹; Km (purified protein [5]): 11.6 µM; kcat (purified protein [5]): 1400 s⁻¹; kcat/Km (purified protein [5]): 1.2e+08 M⁻¹ s⁻¹
